The supplement of paper PMC10598134
± gives the standard deviation.

Test: collision cross section of modified peptide (TIMS, N2, iRT-aligned); higher = larger / more extended gas-phase ion
Outline: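 Collision cross section values rest on the Mason-Schamp equation applied to calibrated, run-aligned mobility data from synthetic peptides. Mobility (1/K0) was calibrated with three reference ions and aligned per run to the median iRT peptide deviation, and 1–3 technical replicates of the most abundant feature per charge state were averaged. Data came from a timsTOF Pro/HT in dda-PASEF mode (nitrogen, ~2.4 mbar) after a 120-min nanoflow C18 gradient at 60 °C.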

[1] = charge state: 2, modification: Dimethyl (K)
[2] = charge state: 3, modification: Dimethyl (K)
[3] = charge state: 2, modification: Butyryl
[4] = charge state: 2, modification: Malonyl
[5] = charge state: 2, modification: Acetyl (K)
[6] = charge state: 3, modification: Acetyl (K)
[7] = charge state: 3, modification: Methyl (K)
[8] = charge state: 2, modification: Succinyl
[9] = charge state: 3, modification: Succinyl
[10] = charge state: 2, modification: Phospho (Y)
[11] = charge state: 2, modification: Nitro (Y)
[12] = charge state: 2, modification: Methyl (K)
[13] = charge state: 3, modification: Methyl (R)

GEVQVSDKER [_GEVQVSDK(Dimethyl (K))ER_]
collision cross section [1]: 362.93 ± 0.58 Å² | collision cross section [2]: 422.58 ± 1.6 Å²

TPSSFRQPFTPTSR [_TPSSFR(Citrullination (R))QPFTPTSR_]
collision cross section (charge state: 3, modification: Citrullination (R)): 499.72 Å²

GPPGPAGPSGESR [_GPP(Hydroxyproline)GPAGPSGESR_]
collision cross section (charge state: 2, modification: Hydroxyproline): 344.62 ± 1.9 Å²

VPTTEKPTVTVNFR [_VPTTEK(Butyryl)PTVTVNFR_]
collision cross section [3]: 428.57 ± 0.24 Å² | collision cross section (charge state: 3, modification: Butyryl): 508.36 ± 2.4 Å²

GFCFITYTDEEPVKK [_GFCFITYTDEEPVK(Malonyl)K_]
collision cross section [4]: 452.98 ± 0.65 Å²

LSFGLEDEPLETATK [_LSFGLEDEPLET(HexNAc (ST))ATK_]
collision cross section (charge state: 2, modification: HexNAc (ST)): 457.66 ± 0.56 Å² | collision cross section (charge state: 3, modification: HexNAc (ST)): 480.97 Å²

ISALQGKLSK [_ISALQGK(Malonyl)LSK_]
collision cross section [4]: 349.78 ± 0.6 Å²

DVNAAIAAIKTK [_DVNAAIAAIK(Acetyl (K))TK_]
collision cross section [5]: 390.07 ± 14 Å² | collision cross section [6]: 457.21 Å²

GETASKLQSEISR [_GETASK(Dimethyl (K))LQSEISR_]
collision cross section [1]: 398.3 ± 1.1 Å² | collision cross section [2]: 460.41 ± 2.6 Å²

DSINFLDHINGKK [_DSINFLDHINGK(Methyl (K))K_]
collision cross section [7]: 461.65 ± 2.7 Å²

DTGEKLTVAENEAETK [_DTGEK(Acetyl (K))LTVAENEAETK_]
collision cross section [5]: 441.95 ± 2.1 Å² | collision cross section [6]: 512.62 Å²

ANEKTESSSAQQVAVSR [_ANEK(Succinyl)TESSSAQQVAVSR_]
collision cross section [8]: 443.48 ± 0.35 Å² | collision cross section [9]: 533.43 ± 0.35 Å²

YIGTGHADTTK [_Y(Phospho (Y))IGTGHADTTK_]
collision cross section [10]: 372.65 ± 0.75 Å²

ITGKNQVTATK [_ITGK(Formyl)NQVTATK_]
collision cross section (charge state: 2, modification: Formyl): 360.79 ± 0.79 Å²

YRGDYDR [_YR(Citrullination (R))GDYDR_]
collision cross section (charge state: 2, modification: Citrullination (R)): 333.6 ± 1.8 Å²

DTPTSAGPNSFNKGK [_DTPTSAGPNSFNK(Propionyl)GK_]
collision cross section (charge state: 2, modification: Propionyl): 410.13 ± 0.64 Å²

LQIASDENYK [_LQIASDENY(Nitro (Y))K_]
collision cross section [11]: 364.55 ± 1.2 Å²

VETTVTSLKTK [_VETTVTSLK(Butyryl)TK_]
collision cross section [3]: 389.24 ± 1.3 Å²

AAQASDLEKIHLDEK [_AAQASDLEK(Methyl (K))IHLDEK_]
collision cross section [12]: 449.24 Å² | collision cross section [7]: 507.05 ± 2 Å²

FGRGTGLTQPSQR [_FGR(Methyl (R))GTGLTQPSQR_]
collision cross section [13]: 470.4 ± 2.6 Å²

YILIPASQQPK [_Y(Nitro (Y))ILIPASQQPK_]
collision cross section [11]: 382.12 ± 0.17 Å²

DYNVTANSK [_DY(Phospho (Y))NVTANSK_]
collision cross section [10]: 337.74 ± 0.067 Å²

KFGVLSDNFK [_K(Methyl (K))FGVLSDNFK_]
collision cross section [12]: 372.37 ± 0.47 Å² | collision cross section [7]: 448.39 ± 4.9 Å²

TLQKQSVVYGGK [_TLQK(Malonyl)QSVVYGGK_]
collision cross section [4]: 395.45 ± 1.1 Å²

ITGKNQVTATK [_ITGK(Trimethyl (K))NQVTATK_]
collision cross section (charge state: 2, modification: Trimethyl (K)): 375.05 ± 1.7 Å² | collision cross section (charge state: 3, modification: Trimethyl (K)): 426.22 Å²

SKLLFSNTAAQK [_SK(GlyGly (K))LLFSNTAAQK_]
collision cross section (charge state: 2, modification: GlyGly (K)): 396.71 ± 0.37 Å² | collision cross section (charge state: 3, modification: GlyGly (K)): 447.27 ± 13 Å²

TTGFYSGFSEVAEKR [_TTGFYSGFSEVAEK(Methyl (K))R_]
collision cross section [12]: 449.23 ± 2.4 Å² | collision cross section [7]: 510.26 ± 2 Å²

YSSNLGNFNYEQRGAFR [_YSSNLGNFNYEQR(Methyl (R))GAFR_]
collision cross section [13]: 534.33 ± 1.9 Å²

GEGGFGGRGGGR [_GEGGFGGR(Methyl (R))GGGR_]
collision cross section (charge state: 2, modification: Methyl (R)): 345.55 ± 1 Å² | collision cross section [13]: 413.1 Å²

GFALVGVGSEASSKK [_GFALVGVGSEASSK(Succinyl)K_]
collision cross section [8]: 413.38 ± 0.54 Å² | collision cross section [9]: 497.13 ± 2.5 Å²

TEVLSPNSKVESK [_TEVLSPNSK(hydroxyisobutyryl)VESK_]
collision cross section (charge state: 2, modification: hydroxyisobutyryl): 419.54 ± 0.31 Å² | collision cross section (charge state: 3, modification: hydroxyisobutyryl): 455.3 ± 1.9 Å²
